One experiment concerns the target insoluble type I collagen fibers from bovine achilles tendon, P02453;P02465. The experiment is described as follows: fluorescence detection of EGFP fusion binding to collagen. As to conditions: parent: est. 100; read off a plot.
Turning to “EGFP-PPC (PPC domain of VhaC fused to EGFP) W789A”, the percent of parent worked out at 19%. Turning to “EGFP-PPC (PPC domain of VhaC fused to EGFP) K753A”, the percent of parent is 100%. Regarding “EGFP-PPC (PPC domain of VhaC fused to EGFP) D751A”, the percent of parent turned out to be 3%. As for “EGFP-PPC (PPC domain of VhaC fused to EGFP) Y788A”, the percent of parent turned out to be 73%.

On to “EGFP-PPC (PPC domain of VhaC fused to EGFP) Y756A”, for which the percent of parent was determined as 9%. On to “EGFP-PPC (PPC domain of VhaC fused to EGFP) W761A”, for which the percent of parent was 7%. In the case of “EGFP-PPC (PPC domain of VhaC fused to EGFP) E778A”, the percent of parent turned out to be 21%. As to “EGFP-PPC (PPC domain of VhaC fused to EGFP) Y791A”, the percent of parent came to 13%. Take “EGFP-PPC (PPC domain of VhaC fused to EGFP) W770A”: the percent of parent was 100%.

On to “EGFP-PPC (PPC domain of VhaC fused to EGFP) E755A”, for which the percent of parent worked out at 51%.

Turning to “EGFP-PPC (PPC domain of VhaC fused to EGFP) W729A”, the percent of parent stood at 58%.

A further experiment shares this target. The experiment is described as follows: fluorescence detection of EGFP fusion binding to collagen fibers. Conditions: parent: est. 100; read off a plot.
Turning to “activator domain-EGFP (VhaC activator domain fused to EGFP) E294A”, the percent of parent was 85%. For the substance “activator domain-EGFP (VhaC activator domain fused to EGFP) N290A”, the percent of parent worked out at 88%. Still for that read-out and setting: the result for “activator domain-EGFP (VhaC activator domain fused to EGFP) F286A” reads 51%; that for “activator domain-EGFP (VhaC activator domain fused to EGFP) D207A”, 70%; that for “activator domain-EGFP (VhaC activator domain fused to EGFP) W234A”, 69%. Same read-out and setting: to “activator domain-EGFP (VhaC activator domain fused to EGFP) R293A” belongs 93%; to “activator domain-EGFP (VhaC activator domain fused to EGFP) R153A”, 32%; to “activator domain-EGFP (VhaC activator domain fused to EGFP) F160A”, 86%. “activator domain-EGFP (VhaC activator domain fused to EGFP) F107A”: the percent of parent was determined as 20%. Regarding “activator domain-EGFP (VhaC activator domain fused to EGFP) Y157A”, the percent of parent is 42%.

Source of the values: PMC8799719.
